Laboratory results from the DeepSol protein solubility set.

Assay: soluble on expression in E. coli; label from the status in PepcDB or PDB records
With “GSPEFEFKQKYDYFRKKLKKPADIPNRFEMKLHRNNIFEESYRRIMSVKRPDVLKARLWIEFESEKGLDYGGVAREWFFLLSKEMFNPYYGLFEYSATDNYTLQINPNSGLCNEDHLSYFTFIGRVAGLAVFHGKLLDGFFIRPFYKMMLGKQITLNDMESVDSEYYNSLKWILENDPTELDLMFCIDEENFGQTYQVDLKPNGSEIMVTNENKREYIDLVIQWRFVNRVQKQMNAFLEGFTELLPIDLIKIFDENELELLMCGLGDVDVNDWRQHSIYKNGYCPNHPVIQWFWKAVLLMDAEKRIRLLQFVTGTSRVPMNGFAELYGSNGPQLFTIEQWGSPEKLPRAHTAFNRLDLPPYETFEDLREKLLMAVENAQGFEGVD” the “soluble on expression in E. coli” value was “soluble”.
With “GSPGIPMVAAHAAHSQSSAEWIACLDKRPLERSSEDVDIIFTRLKGVKAFEKFHPNLLRQICLCGYYENLEKGITLFRQGDIGTNWYAVLAGSLDVKVSETSSHQDAVTICTLGIGTAFGESILDNTPRHATIVTRESSELLRIEQEDFKALWEKYRQYMAGLLAPPYGVMETGSNNDRIPDKENVPSEKILRAGKILRIAILSRAPHMIRDRKYHLKTYRQCCVGTELVDWMIQQTSCVHSRTQAVGMWQVLLEDGVLNHVDQERHFQDKYLFYRFLDDEREDAPLPTEEEKKECDEELQDTMLLLSQMGPDAHMRMILRKPPGQRTVDDLEIIYDELLHIKALSHLSTTVKRELAGVLIFESHAKGGTVLFNQGEEGTSWYIILKGSVNVVIYGKGVVCTLHEGDDFGKLALVNDAPRAASIVLREDNCHFLRVDKEDFNRILRDVEANTVRLKEHDQDVLVLEKVPAGNRAANQGNSQPQQKYTVMSGTPEKILEHFLETIRLEPSLNEATDSVLNDFVMMHCVFMPNTQLCPALVAHYHAQPSQGTEQERMDYALNNKRRVIRLVLQWAAMYGDLLQEDDVAMAFLEEFYVSVSDDARMMAAFKEQLPELEKIVKQISEDAKAPQKKHKVLLQQFNTGDERAQKRQPIRGSDEVLFKVYCIDHTYTTIRVPVAASVKEVISAVADKLGSGEGLIIVKMNSGGEKVVLKSNDVSVFTTLTINGRLFACPREQFDSLTPLPEQEGPTTGTVGTFELMSSKDLAYQMTTYDWELFNCVHELELIYHTFGRHNFKKTTANLDLFLRRFNEIQFWVVTEVCLCSQLSKRVQLLKKFIKIAAHCKEYKNLNSFFAIVMGLSNVAVSRLALTWEKLPSKFKKFYAEFESLMDPSRNHRAYRLTAAKLEPPLIPFMPLLIKDMTFTHEGNKTFIDNLVNFEKMRMIANTARTVRYYRSQPFNPDAAQANKNHQDVRSYVRQLNVIDNQRTLSQMSHRLEPRRP” the “soluble on expression in E. coli” value was “soluble”.
For “GSPGISGGGGGIPSGRGELLVSLCYQSTTNTLTVVVLKARHLPKSDVSGLSDPYVKVNLYHAKKRISKKKTHVKKCTPNAVFNELFVFDIPCESLEEISVEFLVLDSERGSRNEVIGRLVLGATAEGSGGGHWKEICDFPRRQIAKWHMLCDG”, the “soluble on expression in E. coli” value was “soluble”.
For “GSSAVNQENERLMEEYERLASELLEWIRRTIPWLENRTPEKTMQAMQKKLEDFRDYRRKHKPPKVQEKCQLEINFNTLQTKLRISNRPAFMPSEGKMVSDIAGAWQRLEQAEKGYEEWLLNEIRRLERLEHLAEKFRQKASTHETWAYGKEQILLQKDYESASLTEVRALLRKHEAFESDLAAHQDRVEQIAAIAQELNELDYHDAVNVNDRCQKICDQWDRLGTLTQKRREALERMEKLLETIDQLHLEFAKRAAPFNNWMEGAMEDLQDMFIVHSIEEIQSLITAHEQFKATLPEADGERQSIMAIQNEVEKVIQSYNIRISSSNPYSTVTMDELRTKWDKVKQLVPIRDQSLQEELARQHANERLRRQFAAQANAIGPWIQNKMEEIARSSIQITGALEDQMNQLKQYEHNIINYKNNIDKLEGDHQLIQEALVFDNKHTNYTMEHIRVGWELLLTTIARTINEVETQILTRD”, the “soluble on expression in E. coli” value was “soluble”.
With “GSSGSSGDKKAYFYHSSFQILNVEYTEALNSPATHEYRTLSERIEAMITDEFRGSSLKSEFIRTHVVKLRKEGTGVVADVVMKFRSSKRNNRKVMKTRIQSVLRRLSSSGNLEIAPSNEITSLTDQDT” the “soluble on expression in E. coli” value was “soluble”.
For “GSTAAEKPKLHYFNARGRMESTRWLLAAAGVEFEEKFIKSAEDLDKLRNDGYLMFQQVPMVEIDGMKLVQTRAILNYIASKYNLYGKDIKERALIDMYIEGIADLGEMILLLPVCPPEEKDAKLALIKEKIKNRYFPAFEKVLKSHGQDYLVGNKLSRADIHLVELLYYVEELDSSLISSFPLLKALKTRISNLPTVKKFLQPGSPRKPPMDEKSLEEHRKIFRF”, the “soluble on expression in E. coli” value was “soluble”.
With “GSVLEPLKVVWAKCSGYPSYPALIIDPKMPRVPGHHNGVTIPAPPLDVLKIGEHMQTKSDEKLFLVLFFDNKRSWQWLPKSKMVPLGIDETIDKLKMMEGRNSSIRKAVRIAFDRAMNHLSRVHGE” the “soluble on expression in E. coli” value was “soluble”.
In the case of “GSWDWNLITGEVCWSDELYHIFGRSPQESGATYDEFLSYVHPDDRDRVDNALKKGLNGESVAGNYRIILGDGEERIVRTEAEVVFDEK”, the “soluble on expression in E. coli” value is reported as “not soluble”.
With “GTDGTKPECTLCGVKYSARLSIRDHIFSKQHISKVRETVGSQLDREKD” the “soluble on expression in E. coli” value was “soluble”.
For “GTRKCELQGLWRNELGSNMTISALDVAGTFSGSYQTAVTATNKQILVSPLKGAQQPPGTKGQQPTFGFTVQWQFADSTTVFVGQCFVDRRGKEMLEMAWLLREEVPSRKDTWKATRVGTNVFTRVK”, the “soluble on expression in E. coli” value was “soluble”.
In the case of “GVWRQYASRALQELGAGKRAIHDVADLTRGSLRIAVTPTFTSYFIGPLMADFYARYPSITLQLQEMSQEKIEDMLCRDELDVGIAFAPVHSPELEAIPLLTESLALVVAQHHPLAVHEQVALSRLHDEKLVLLSAEFATREQIDHYCEKAGLHPQVVIEANSISAVLELIRRTSLSTLLPAAIATQHDGLKAISLAPPLLERTAVLLRRKNSWQTAAAKAFLHMALDKCAVVGGNESR”, the “soluble on expression in E. coli” value is reported as “soluble”.
With “GWAAGDYPVVTTDHLKAMIDEKRDFLLIDARTPEEYAEAHIVGAVNVPEKTFDSASAQLPADKAKLIVLYCNGIKCGKSKRVAKKVEPLGYTAIAVYNEGMPVWEERGLPIVKGAGYGRK” the “soluble on expression in E. coli” value was “not soluble”.
For “GYKKIPKKKLKDLMVELYVADGHFANIYDPKLTDSVREAVYTNLFAKYGTTRMDYDSTLMWYGRHDLEEYIAICQSVRDELEKQRIDLDKQITLEREKKGMDMLDGSFYELDSINMLAGDSTCFYRPEMPFLNRSFIITPGTAYKEGTRLEFVTRLRGLQLRPDATMEMFLQLVCTDNTVLTVSRPVNPGINMLTTSVPDSASVSRVYGYLRGFPDSAGIMSLSPFVIDSFSLRKF”, the “soluble on expression in E. coli” value was “not soluble”.
In the case of “HGGEAHMVPMDKTLKEFGADVQWDDYAQLFTLIKDGAYVKVKPGAQTAIVNGQPLALQVPVVMKDNKAWVSDTFINDVFQSGLDQTFQVEKRPHPLNALTADEIKQAVEIVKASADFKPNTRFTEISLLPPDKEAVWAFALENKPVDQPRKADVIMLDGKHIIEAVVDLQNNKLLSWQPIKDAHGMVLLDDFASVQNIINNSEEFAAAVKKRGITDAKKVITTPLTVGYFDGKDGLKQDARLLKVISYLDVGDGNYWAHPIENLVAVVDLEQKKIVKIEEGPVVPVPMTARPFDGRDRVAPAVKPMQIIEPEGKNYTITGDMIHWRNWDFHLSMNSRVGPMISTVTYNDNGTKRKVMYEGSLGGMIVPYGDPDIGWYFKAYLDSGDYGMGTLTSPIARGKDAPSNAVLLNETIADYTGVPMEIPRAIAVFERYAGPEYKHQEMGQPNVSTERRELVVRWISTVGNYDYIFDWIFHENGTIGIDAGATGIEAVKGVKAKTMHDETAKDDTRYGTLIDHNIVGTTHQHIYNFRLDLDVDGENNSLVAMDPVVKPNTAGGPRTSTMQVNQYNIGNEQDAAQKFDPGTIRLLSNPNKENRMGNPVSYQIIPYAGGTHPVAKGAQFAPDEWIYHRLSFMDKQLWVTRYHPGERFPEGKYPNRSTHDTGLGQYSKDNESLDNTDAVVWMTTGTTHVARAEEWPIMPTEWVHTLLKPWNFFDETPTLGALKKDK”, the “soluble on expression in E. coli” value is reported as “soluble”.
In the case of HHASPRKQGKKENGPPHSHTLKGRRLVFDN, the “soluble on expression in E. coli” value is reported as “soluble”.
For “HHMKLYIMPGACSLADHILLRWSGSSFDLQFLDHQSMKAPEYLALNPSGAVPALQVGDWVLTQNAAILNYITDIAPAERGLSGDGSLKARAEINRWIAFSNSDVHPMYWALFGGTAYLQDPQMIARSQDNARQKLRVLYQRADAHLKHHNWLANGQRSGADAYLYVTLRWAKKVGVDLSSLDALSAFFERMEADPGVQAALQAEGLI”, the “soluble on expression in E. coli” value was “soluble”.
For “HMSFSHVCQVGDPVLRGVAAPVERAQLGGPELQRLTQRLVQVMRRRRCVGLSAPQLGVPRQVLALELPEALCRECPPRQRALRQMEPFPLRVFVNPSLRVLDSRLVTFPEGCESVAGFLACVPRFQAVQISGLDPNGEQVVWQASGWAARIIQHEMDHLQGCLFIDKMDSRTFTNVYWMKVND”, the “soluble on expression in E. coli” value was “soluble”.
In the case of “HMTMEQFLTSLDMIRSGCAPKFKLKTEDLDRLRVGDFNFPPSQDLMCYTKCVALMAGTVNKKGEFNAPKALAQLPHLVPPEMMEMSRKSVEACRDTHKQFKESCERVYQTAKCFSENADGQFMWP”, the “soluble on expression in E. coli” value is reported as “soluble”.
With “HPICEVSKVASHLEVNCDKRNLTALPPDLPKDTTILHLSENLLYTFSLATLMPYTRLTQLNLDRAELTKLQVDGTLPVLGTLDLSHNQLQSLPLLGQTLPALTVLDVSFNRLTSLPLGALRGLGELQELYLKGNELKTLPPGLLTPTPKLEKLSLANNNLTELPAGLLNGLENLDTLLLQENSLYTIPKGFFGSHLLPFAFLHGNPWLCNCEILYFRRWLQDNAENVYVWKQGVDVKAMTSNVASVQCDNSDKFPVYKYPGKGCPTLGDEGDTDLYDYYPEEDTEGDKVR” the “soluble on expression in E. coli” value was “soluble”.
For “HYIFPHARIKITRDSKDHTVSGNGLGIRIVGGKEIPGHSGEIGAYIAKILPGGSAEQTGKLMEGMQVLEWNGIPLTSKTYEEVQSIISQQSGEAEICVRLDLNM”, the “soluble on expression in E. coli” value was “soluble”.
In the case of “IDKIENYEQSTSQLREEIKTLYNEVIDIGKKLSQERRRVARELRDHIVSEIQNLQMKDANLEISFKPLDEPTIEGIEFVEFLISPNRGEPLKSLNKIASGGELSRIMLALKSIFVKSRGQTAILFDEVDSGVSGQAAQKMAEKMRDIAQYIQVICISHLPQVASMSDHHLLISKASNADRTTTQVKELKDENKIDEIARMISGASVTELTRENAKEMIKQNHNI”, the “soluble on expression in E. coli” value is reported as “not soluble”.
For “IDRKVLSQLRNRFLSLNDGRYARALEGMSTRQQSVLTLLPLFFHVNHPLLPGYVSGSTPAGVSHYEPDTLALAEAQRLTRSFSYKARHGNPPQPIHGLFLMGSLGTLAQADQSDMDVWVCHDSELDLEAIAELRKKCQALEAWAATMGAEAHFFLIDPQRFKSGERDSQLSSDDCGTTQHYLLLDEFYRTAIWLAGRTPMWWMVPVYEEQNYEDYTYTLLSKRFIRASEVLDLGPMSHIPATEFIGAGLWQLFKGIGSPYKSVLKLLLIEVYSSEHPRVQCLSLRFKQAVFANQLDLDELDPYVVVYRRIEEHLQARNEPERLELVRRSLYLKVNKKLTGSTRQRNIGWQRLLLARLTSEWGWDERQLTLLDSRSQWKVRQVASERRALVNELNYSYRFQTRFARAQSTADTLDARDLTILGRRLYAAYERKAGKVEFINPGIAPDLAEDTLTLVHSPDKREPGKHQWALYNGNLGIHEWANFSPIKRSRELLELLAWCHRNNVIDTTTRVALHPGTSDLSEFELFNLLGALQQSIELPLPEVSDDELLKPSAPSEILLLINVGVDPLRHHRDLNILMTTERTDSLSYAGVRENLVLTLDQITLNTWNETLVSRYDGPHALLDCMSELLGSLPTSGKQPQIRVRCFCHNRASAIAQRVEELISTAQLLLARQLNHRYLIQVQQQYHVLEIKPGQVGHVVVNSLPGLFKYLGEELPRYSPLHLDPQALDGHDLALILPLGQPECIQVFYRINEPDADLYVLDEHNSLWHQRVPYHDEQSLLTPLQRFFHSLVYRRGASLPLDD”, the “soluble on expression in E. coli” value was “not soluble”.
